Results as given in US20110165066A1 (AbbVie / Abbott, published 2011).

T1: mouse IL-13 (mouse, UniProt P20109 26-131, limits assumed)
T1 construct: also called mIL-13; murine IL-13
T1 sequence (looked up): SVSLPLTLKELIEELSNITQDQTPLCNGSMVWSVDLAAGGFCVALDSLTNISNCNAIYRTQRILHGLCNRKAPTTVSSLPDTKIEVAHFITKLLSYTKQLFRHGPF


Tests used:
[1] = target: T2, human IL-13 wild type (human, UniProt P35225 35-146); assay: cell-based or functional assay
[2] = target: T3, human IL-13 variant (R130Q) (human, UniProt P35225 35-146); assay: cell-based or functional assay
[3] = target: cynomolgus IL-13 (cynomolgus, UniProt Q0PW92 21-132); assay: cell-based or functional assay
[4] = target: T2, human IL-13 wild type; assay: SPR (Biacore), mAb captured, IL-13 as analyte
Description: (§1) The BIACORE assay (Biacore, Inc, Piscataway, N.J.) determines the affinity of antibodies with kinetic measurements of on-, off-rate constants. […] All chemicals were obtained from Biacore® AB (Uppsala, Sweden) or otherwise from a different source as described in the text. Approximately 5000 RU of goat anti-mouse IgG, (Fcγ), fragment specific polyclonal antibody (Pierce Biotechnology Inc, Rockford, Ill.) diluted in 10 mM sodium acetate (pH 4.5) was directly immobilized across a CM5 research grade biosensor chip using a standard amine coupling kit according to manufacturer's instructions and procedures at 25 μg/ml. Unreacted moieties on the biosensor surface were blocked with ethanolamine. Modified carboxymethyl dextran surface in flowcell 2 and 4 was used as a reaction surface. Unmodified carboxymethyl dextran without goat anti-mouse IgG in flow cell 1 and 3 was used as the reference surface. For kinetic analysis, rate equations derived from the 1:1 Langmuir binding model were fitted simultaneously to association and dissociation phases of all eight injections (using global fit analysis) with the use of Biaevaluation 4.0.1 software. Purified antibodies were diluted in HEPES-buffered saline for capture across goat anti-mouse IgG specific reaction surfaces. Mouse antibodies to be captured as a ligand (25 μg/ml) were injected over reaction matrices at a flow rate of 5 μl/min. The association and dissociation rate constants, kₒₙ (unit M⁻¹s⁻¹) and koff (unit s⁻¹) were determined under a continuous flow rate of 25 μl/min Rate constants were derived by making kinetic binding measurements at ten different antigen concentrations ranging from 10-200 nM. […] Binding is recorded as a function of time and kinetic rate constants are calculated.

[5] = target: T3, human IL-13 variant (R130Q); assay: SPR (Biacore), mAb captured, IL-13 as analyte
Description: as §1

[6] = target: T1, mouse IL-13; assay: indirect ELISA, captured mAb, biotinylated mouse IL-13
Description: Murine anti-human IL-13 mAbs were prepared at various concentrations ranging from 0.1 to 100 ng/ml in PBS containing 0.1% BSA; 50 ul of each antibody dilution was added to the coated ELISA plate and incubated for 1 hour at room temperature. Wells were washed 3 times with PBS containing 0.05% Tween-20. […] Wells were washed 3 times with PBS containing 0.05% Tween-20. Streptavidin HRP (Pierce #21126, Rockland, Ill.) was diluted 1:20000 in PBS containing 0.1% BSA; […] was added and the plates incubated for 1 hour at room temperature. Plates were washed 3 times with PBS containing 0.05% Tween-20. Fifty microliters of TMB solution (Sigma # T0440, St. Louis, Mo.) was added to each well and incubated for 10 minutes at room temperature. The reaction was stopped by addition of 1N sulphuric acid. Plates were read spectrophotmetrically at a wavelength of 450 nm.

T2 sequence (P35225 other isoform, or with tags, fused parts or gaps limits assumed): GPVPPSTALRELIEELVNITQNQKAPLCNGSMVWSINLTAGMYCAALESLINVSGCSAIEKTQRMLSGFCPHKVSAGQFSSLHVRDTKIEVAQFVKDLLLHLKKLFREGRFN
T3 sequence (P35225 35-146 limits assumed, stated change not applied): as the sequence (P35225 other isoform, or with tags, fused parts or gaps limits assumed) above, with R110Q counted along it
Sequence of cynomolgus IL-13 (Q0PW92 entry or part of it): as the sequence (P35225 other isoform, or with tags, fused parts or gaps limits assumed) above, with G1S, R10K, M42V, S67N, H83R, L100V, R110Q counted along it

Binder | Average IC50, IL-13-induced TARC production by A-549 cells [1] | Average IC50, IL-13-induced TARC production by A-549 cells [2] | Average IC50, IL-13-induced TARC production by A-549 cells [3] | Kd [4] | koff [4] | kon [4] | Kd [5] | koff [5] | kon [5] | binding result [6]
25C8 (antibody, V domains shown) VH: QVQLQQPGAELVRPGASVQLSCKASGYTFTSSWIHWVNQRPGQGLEWIGMIHPSDSETRLNQKFKDKATLTVDKSSSTAYMQLSSPTSEDSAVYYCASTATDFDYWGQGTTLTVSS VL: DVVLTQTPLSLPVNIGDQASISCKSTKSLLNSDGFTYLDWYLQKPGQSPQLLIYLVSNRFSGAPDRFSGSGSGTDFTLKISRVEAEDLGVYYCFQHNYLPLTFGAGTNLELKR | 0.23 nM | 0.26 nM | 0.188 nM | 0.0754 nM | 2.6e-05 s⁻¹ | 345000 M⁻¹ s⁻¹ | 0.0631 nM | 8.45e-06 s⁻¹ | 134000 M⁻¹ s⁻¹ | no binding (tested: 0.1 to 100 ng/ml)
4A8 (antibody, V domains shown) VH: EVQLQQSGAEFVRPGALVKLSCKASGFNIKDYYMYWVKQRPEQGLEWIGRIDPENGNTIYDPKFQGKASITGDTSSNTAYLQLSSLTSEDTAVYYCARYAYYGPFDYWGQGTTLTVSS VL: QAVVTQESALTTSPGETVTLTCRSSIGTVTTNNYANWVQEKPDHLFTGLIGSTNNRAPGVPARFSGSLIGDKAALTITGAQTEDEAIYFCALWYSNHWVFGGGTKLTVLG |  | 0.27 nM |  | 0.089 nM |  |  | 0.157 nM |  |  | no binding (tested: 0.1 to 100 ng/ml)
5F1 (antibody, V domains shown) VH: QVQLQQSGAELARPGTSVKLSCKASGYTFTTYGISWVKQRTGQGLEWIGEIYPGSYNTYYNEKFRGKATLTADKSSSTAYMQLSSLTSEDSAVYFCSRWRTSYFSDYGYFDYWGQGTTLTVSS VL: DVVMTQTPLSLPVSLGDQASISCRSSQSLVHSHGNTYLHWYLQKPGQSPKLLIYTVSNRFSGVPDRFSGSGSGTDFTLKISRVEAEDLGVYFCSQSTHVPYTFGGGTKLEIKR | 0.097 nM | 0.09 nM | 1.88 nM | 0.0289 nM | 2.24e-05 s⁻¹ | 774000 M⁻¹ s⁻¹ | 0.0314 nM | 1.57e-05 s⁻¹ | 502000 M⁻¹ s⁻¹ | no binding (tested: 0.1 to 100 ng/ml)
5G1 (antibody, V domains shown) VH: QVQLQQSGAELARPGTSVKLSCKASGYTFTTYGVSWVKQRTGQGLEWIGEIYPGNYNTYYNEKFRGKATLTADKSSSTAYMQLSSLTSEDSAVYFCSRWRTSYFSDYGYFDYWGQGTTLTVSS VL: DVVMTQTPLSLPVSLGDQASISCRSSQSLVHSHGNTYLHWYLQKPGQSPKLLIYTVSNRFSGVPDRFSGSGSGTDFTLKISRVEAEDLGVYFCSQSTHVPYTFGGGTKLEIKR | 0.076 nM | 0.048 nM | 0.612 nM | 0.00877 nM | 5.49e-06 s⁻¹ | 626000 M⁻¹ s⁻¹ | 0.13 nM | 2.05e-05 s⁻¹ | 157000 M⁻¹ s⁻¹ | no binding (tested: 0.1 to 100 ng/ml)
1B6 (antibody, V domains shown) VH: QVQLKESGPGLVAPSQSLSITCTVSGFSLTGYGVNWVRQPPGKGLEWLGMIWGDERIDYNSALKSRLSITKDNSKSQVFLKMNSLQTDDTGRYFCARDGYFPYAMDYWGQGTSVTVSS VL: NIVLTQSPASLAVSLGQRATISCRASETVDSYGKSYLHWYQQKPGQPPKLLIYLASNLESGVPARFSGSGSRTDFTLIIDPVEADDAATYYCQQNNEGPRTFGGGTKLEIKR | 0.84 nM | 0.24 nM | 0.521 nM | 0.545 nM | 0.000518 s⁻¹ | 951000 M⁻¹ s⁻¹ | 0.21 nM | 0.000222 s⁻¹ | 1.06e+06 M⁻¹ s⁻¹ | no binding (tested: 0.1 to 100 ng/ml)
6C8 (antibody, V domains shown) VH: QVQLKESGPGLVAPSQSLSITCTVSEFSLTGSSVNWVRQPPGKGLEWLGMIWGDGRIDYNSALKSRLSISKDNSKSQVFLKMNSLQTDDTARYYCARDGYYPYAMNYWGQGTSVTVSS VL: NIVLTQSPASLAVSLGQRATISCRASESVDSYGNSFMHWYQQKPGQPPKLLIYLASNLESGVPARFSGSGSRADFTLTIDPVEADDAATYYCQQNNENPRTFGGGTKLEIKR | 0.72 nM | 0.34 nM | 0.161 nM | 0.484 nM | 0.000702 s⁻¹ | 1.45e+06 M⁻¹ s⁻¹ | 0.403 nM | 0.000394 s⁻¹ | 978000 M⁻¹ s⁻¹ | no binding (tested: 0.1 to 100 ng/ml)
8B6 (antibody, V domains shown) VH: QVQLKESGPGLVAPSQSLSITCTVSGFSLTGHNINWVRQPPGKGLEWLGMIWGDGNTDFNSALKSRLSISKDNSKSQVFLKLNSLQTDDTARYYCARDGYYPYAIKFWGQGTSVTVSS VL: HIVLTQSPASLAVSLGQRATISCRASETVDSYGSSFLHWYQQKPGQPPKLLIYLASKLESGVPARFSGSGSRTDFTLTIDPVEADDAATYYCQQNNEGPRTFGGGSKLEIKR |  | 0.48 nM | 0.395 nM | 0.523 nM | 0.000607 s⁻¹ | 1.16e+06 M⁻¹ s⁻¹ | 0.976 nM | 0.00096 s⁻¹ | 983000 M⁻¹ s⁻¹ | no binding (tested: 0.1 to 100 ng/ml)
3E5 (antibody, V domains shown) VH: QVQLKESGPGLVAPSQSLSITCTVSGFSLTGSSINWVRQPPGKGLEWLGMIWGDGRIDYNSVLKSRLSISKDSSKSQVFLKMNSLQADDTARYYCARDGYYPYAMVYWGQGTSVTVSS VL: NIVLTQSPASLAVSLGQRATIFCRASESVDSYGNSFMHWYQQKSGQPPKLLIYLASNLESGVPARFSGSGSRTDFTLTIDPVEADDAATFYCQQNNENPRTFGGGTKLEIKR | 0.13 nM | 0.3 nM | 0.161 nM | 0.457 nM | 0.000658 s⁻¹ | 1.44e+06 M⁻¹ s⁻¹ | 0.253 nM | 0.000468 s⁻¹ | 1.85e+06 M⁻¹ s⁻¹ | no binding (tested: 0.1 to 100 ng/ml)
29G5 (antibody, V domains shown) VH: QVTLKESGPGILQPSQTLSLTCSFSGFSLSTSDMGVDWIRQPSGKDLEWLAHIWWDDVKRYNPALKSRLTISKDTSSSQVFLMLASVDTADTATYYCARIVSSGYIYYALDYWGQGTSVTVSS VL: DIQMTQTASSLSASLGDRVTISCRASQDIRNYLNWYQRKPDGTVKLLIYYTSRLHSGVPSRFSGSGSGTDYSLTISNLEQEDIATYFCQQGNTLPLTFGGGTKLEIKR | 0.29 nM | 0.2 nM | 4.39 nM | 0.204 nM | 0.000175 s⁻¹ | 859000 M⁻¹ s⁻¹ | 0.329 nM | 0.000104 s⁻¹ | 316000 M⁻¹ s⁻¹ | no binding (tested: 0.1 to 100 ng/ml)
33C3 (antibody, V domains shown) VH: QVTLKESGPGILQPSQTLSLTCSFSGFSLSTSDLGVGWIRQPSGKGLEWLAHIWWDDVKRYNPALKSRLTISKDTSSSQVFLMIASVDTADTATYYCARIGSSGYIYYEMDYWGQGTSVTVSS VL: DIQMTQTTSSLSASLGDRVTITCRASQDIRNYLNWYQQKPDGTVKLLIYYTSRLHSGVPSRFSGSGSGTDYSLTISNLDQEDIATYFCQQGNTLPLTFGGGTRLEIKR | 0.15 nM | 0.1 nM | 0.847 nM | 0.0639 nM | 0.000149 s⁻¹ | 2.33e+06 M⁻¹ s⁻¹ | 0.124 nM | 9.59e-05 s⁻¹ | 770000 M⁻¹ s⁻¹ | no binding (tested: 0.1 to 100 ng/ml)
